Experimental data: patent US20250326843A1 (HARBOUR BIOMED SHANGHAI, published 2025)

T1: murine B7-H4 (murine, UniProt Q7TSP5 25-257)
T1 construct: whole, on cells; also called mB7-H4
T1 sequence (looked up): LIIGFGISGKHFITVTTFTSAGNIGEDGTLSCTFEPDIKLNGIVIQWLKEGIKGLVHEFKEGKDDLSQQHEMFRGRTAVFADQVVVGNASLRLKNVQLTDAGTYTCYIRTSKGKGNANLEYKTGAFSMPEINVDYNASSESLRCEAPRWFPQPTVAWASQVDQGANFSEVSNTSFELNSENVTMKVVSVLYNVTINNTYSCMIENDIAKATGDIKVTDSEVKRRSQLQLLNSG

T2: human B7-H4 (human, UniProt Q7Z7D3 25-282)
T2 construct: whole, on cells; also called huB7-H4; B7-H4 on CHO-K1/huB7-H4, SK-BR-3 and MDA-MB-468 cells
T2 sequence (looked up): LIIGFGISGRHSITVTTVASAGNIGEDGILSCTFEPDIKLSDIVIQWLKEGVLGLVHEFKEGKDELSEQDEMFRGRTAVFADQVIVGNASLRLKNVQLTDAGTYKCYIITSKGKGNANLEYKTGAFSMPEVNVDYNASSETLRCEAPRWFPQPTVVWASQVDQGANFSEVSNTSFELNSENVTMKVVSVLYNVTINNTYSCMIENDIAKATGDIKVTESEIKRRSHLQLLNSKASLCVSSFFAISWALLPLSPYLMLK


Tests used:
murine B7-H4 = molecular target: T1, murine B7-H4; assay: flow cytometry on CHO-K1/mB7-H4 cells
Excerpt: (§1) The CHO-K1 cell strain CHO-K1/huB7-H4 over-expressing human B7-H4 (produced in-house by Harbour BioMed), the CHO-K1 cell strain CHO-K1/cynoB7-H4 over-expressing cynomolgus monkey B7-H4 (produced in-house by Harbour BioMed), the CHO-K1 cell strain CHO-K1/mB7-H4 over-expressing murine B7-H4 (produced in-house by Harbour BioMed), SK-BR-3 and MDA-MB-468 cells were digested. T cells were isolated using the human T cell isolation kit (Miltenyi, #130-096-535) as described in the method of the instruction, and resuspended with PBS containing 2% FBS. The cell density was adjusted to 1×10⁶ cells/mL. The cells were seeded onto a 96-well V-bottom plate (Coming, #3894) at 100 μL/well, followed by the addition of test antibodies diluted in a 3-fold gradient at a concentration that was 2 times the final concentration, each at 100 μL/well. The cells were incubated away from light at 4° C. for 2 h. Thereafter, the cells in each well were rinsed twice with 100 μL of pre-cooled PBS containing 2% BSA, and centrifuged at 500 g at 4° C. for 5 min, and then the supernatant was discarded. […] Finally, the cells in each well were resuspended with 200 μL of pre-cooled PBS containing 2% BSA, and the fluorescence signal values were read using an ACEA Novocyte3000 flow cytometer.

human B7-H4 = molecular target: T2, human B7-H4; assay: flow cytometry on CHO-K1/huB7-H4 cells
Excerpt: as §1

Row | Binder | binding result (murine B7-H4) | binding result (human B7-H4)
1 | B7-H4×CD3 bispecific antibody PR003733 (bispecific antibody, human IgG1, lambda, L234A L235A, Fab-Fc-scFv asymmetric structure (structure A); CD3 arm from PR001848, B7-H4 arm from PR003366) light: QAVVTQEPSLTVSPGGTVTLTCRSSTGAVTTSNYANWVQQKPGQAPRGLIGGTNKRAPWTPARFSGSLLGDKAALTLLGAQPEDEAEYFCALWYSNLWVFGGGTKLTVLGQPKAAPSVTLFPPSSEELQANKATLVCLISDFYPGAVTVAWKADSSPVKAGVETTTPSKQSNNKYAASSYLSLTPEQWKSHRSYSCQVTHEGSTVEKTVAPTECS heavy: not shown EIVMTQSPASLSVSPGERATLSCRASQSVSSNLAWYQQKPGQAPRLLIYGASTRATGIPARVSGGGSGTEFTLTISSLQSEDFAVYYCQQYKNWPFTFGPGTKLEIKGGGGSGGGGSGGGGSGGGGSQVQLVQSGAEVKKPGSSMRVSCKASEDTFSSYAISWVRQAPGQGLEWMGGTAPIFGTTNYAQKFQGRVTITADKSTSTAYMELSSLRSEDTAVYYCARGGPYFDYWGQGTLVTVSSASEPKSSDKTHTCPPCPAPEAAGGPSVFLFPPKPKDTLMISRTPEVTCVVVDVSHEDPEVKFNWYVDGVEVHNAKTKPREEQYNSTYRVVSVLTVLHQDWLNGKEYKCKVSNKALPAPIEKTISKAKGQPREPQVCTLPPSREEMTKNQVSLSCAVKGFYPSDIAVEWESNGQPENNYKTTPPVLDSDGSFFLVSKLTVDKSRWQQGNVFSCSVMHEALHNHYTQKSLSLSPGK | binds | 
2 | B7-H4×CD3 bispecific antibody PR003899 (bispecific antibody, human IgG1, lambda, L234A L235A, Fab-Fc-scFv asymmetric structure (structure A); CD3 arm from PR003886, B7-H4 arm from PR003366) light: QAVVTQEPSLTVSPGGTVTLTCRSSTGAVTTSNYANWVQQKPGQAPRGLIGGTNKRAPWTPARFSGSLLGDKAALTLLGAQPEDEAEYFCALWYSNLWVFGGGTKLTVLGQPKAAPSVTLFPPSSEELQANKATLVCLISDFYPGAVTVAWKADSSPVKAGVETTTPSKQSNNKYAASSYLSLTPEQWKSHRSYSCQVTHEGSTVEKTVAPTECS heavy: not shown EIVMTQSPASLSVSPGERATLSCRASQSVSSNLAWYQQKPGQAPRLLIYGASTRATGIPARVSGGGSGTEFTLTISSLQSEDFAVYYCQQYKNWPFTFGPGTKLEIKGGGGSGGGGSGGGGSGGGGSQVQLVQSGAEVKKPGSSMRVSCKASEDTFSSYAISWVRQAPGQGLEWMGGTAPIFGTTNYAQKFQGRVTITADKSTSTAYMELSSLRSEDTAVYYCARGGPYFDYWGQGTLVTVSSASEPKSSDKTHTCPPCPAPEAAGGPSVFLFPPKPKDTLMISRTPEVTCVVVDVSHEDPEVKFNWYVDGVEVHNAKTKPREEQYNSTYRVVSVLTVLHQDWLNGKEYKCKVSNKALPAPIEKTISKAKGQPREPQVCTLPPSREEMTKNQVSLSCAVKGFYPSDIAVEWESNGQPENNYKTTPPVLDSDGSFFLVSKLTVDKSRWQQGNVFSCSVMHEALHNHYTQKSLSLSPGK | binds | binds
